Data reported in publication PMC6006248, “CARK1 mediates ABA signaling by phosphorylation of ABA receptors” (Cell Discovery, 2018).
Numbering of substitutions follows the chain as printed. Numbers in names are those of the source.

B1: wild-type RCAR3 (purified, SPR and phosphatase assay) (receptor, Arabidopsis, UniProt Q9FGM1 1-188, looked up)
chain: MEANGIENLTNPNQEREFIRRHHKHELVDNQCSSTLVKHINAPVHIVWSLVRRFDQPQKYKPFISRCVVKGNMEIGTVREVDVKSGLPATRSTERLELLDDNEHILSIRIVGGDHRLKNYSSIISLHPETIEGRIGTLVIESFVVDVPEGNTKDETCYFVEALIKCNLKSLADISERLAVQDTTESRV
notes: ABA receptor RCAR3 (PYL8), Arabidopsis; a His-tagged RCAR3 is named for the in-gel kinase assay; also called PYL8; source: purified with the similar procedures as described for CARK1-KD
B2: GST-tagged RCAR11 (receptor, Arabidopsis, UniProt O49686 1-191, looked up)
chain: MPSELTPEERSELKNSIAEFHTYQLDPGSCSSLHAQRIHAPPELVWSIVRRFDKPQTYKHFIKSCSVEQNFEMRVGCTRDVIVISGLPANTSTERLDILDDERRVTGFSIIGGEHRLTNYKSVTTVHRFEKENRIWTVVLESYVVDMPEGNSEDDTRMFADTVVKLNLQKLATVAEAMARNSGDGSGSQVT
notes: ABA receptor RCAR11 (PYR1), Arabidopsis, cDNA cloned into pGEX-6P-1; Details are in the Supplementary Information; also called PYR1; source: E. coli, purified (similar procedures as for CARK1-KD)
B3: RCAR3^S85R (interface point mutant) (receptor, Arabidopsis, UniProt Q9FGM1 1-188, looked up)
chain: B1 chain with S85R
notes: ABA receptor RCAR3 (PYL8), Arabidopsis, with S85R; source: purified with the similar procedures as described for CARK1-KD
B4: RCAR3^T77D (phosphor-mimic form of RCAR3) (receptor, Arabidopsis, UniProt Q9FGM1 1-188, looked up)
chain: B1 chain with T77D
notes: ABA receptor RCAR3 (PYL8), Arabidopsis, with T77D; source: purified with the similar procedures as described for CARK1-KD
B5: GST-tagged RCAR3 (receptor, Arabidopsis, UniProt Q9FGM1 1-188, looked up)
chain: B1 chain
notes: ABA receptor RCAR3 (PYL8), Arabidopsis, cDNA cloned into pGEX-6P-1; Details are in the Supplementary Information; also called PYL8; source: E. coli, purified (similar procedures as for CARK1-KD)
B6: RCAR3^T77A (receptor, Arabidopsis, UniProt Q9FGM1 1-188, looked up)
chain: B1 chain with T77A
notes: ABA receptor RCAR3 (PYL8), Arabidopsis, with T77A; source: purified with the similar procedures as described for CARK1-KD
B7: ABI1 (Clade A PP2C) (enzyme)
chain: MEEVSPAIAGPFRPFSETQMDFTGIRLGKGYCNNQYSNQDSENGDLMVSLPETSSCSVSGSHGSESRKVLISRINSPNLNMKESAAADIVVVDISAGDEINGSDITSEKKMISRTESRSLFEFKSVPLYGFTSICGRRPEMEDAVSTIPRFLQSSSGSMLDGRFDPQSAAHFFGVYDGHGGSQVANYCRERMHLALAEEIAKEKPMLCDGDTWLEKWKKALFNSFLRVDSEIESVAPETVGSTSVVAVVFPSHIFVANCGDSRAVLCRGKTALPLSVDHKPDREDEAARIEAAGGKVIQWNGARVFGVLAMSRSIGDRYLKPSIIPDPEVTAVKRVKEDDCLILASDGVWDVMTDEEACEMARKRILLWHKKNAVAGDASLLADERRKEGKDPAAMSAAEYLSKLAIQRGSKDNISVVVVDLKPRRKLKSKPLN

What was measured:
RCAR11 (PYR1) with ABI1 = molecular target: T1, RCAR11 (PYR1) with ABI1 (Arabidopsis thaliana, UniProt O49686); test: in vitro Ser/Thr phosphatase assay of ABI1; format: biochemical; conditions: read-out is receptor-dependent inhibition of ABI1
T1 construct: recombinant receptor plus ABI1 phosphatase; tags and borders for this assay only in supplement; receptor dimeric; with Protein phosphatase 2C 56
T1 sequence (O49686 1-191): B2 chain
T1 sequence (P49597 1-434 partner): B7 chain

RCAR3 (PYL8) with ABI1 = molecular target: T2, RCAR3 (PYL8) with ABI1 (Arabidopsis thaliana, UniProt Q9FGM1); test: in vitro Ser/Thr phosphatase assay of ABI1; format: biochemical; conditions: read-out is receptor-dependent inhibition of ABI1
T2 construct: recombinant receptor plus ABI1 phosphatase; tags and borders for this assay only in supplement; receptor monomeric; with Protein phosphatase 2C 56
T2 sequence (Q9FGM1 1-188): B1 chain
T2 sequence (P49597 1-434 partner): B7 chain

[1] = molecular target: ABI1 (Clade A PP2C) (Arabidopsis) (UniProt P49597)
CARK1-KD = molecular target: T3, CARK1-KD (Arabidopsis thaliana, UniProt Q9LUT0); test: in vitro kinase assay, […] autoradiography; format: biochemical; conditions: labelled compound; autophosphorylation and phosphorylation of RCAR3/RCAR11
T3 construct: kinase domain, residues 50-353, 6xHis fusion (pET28a), E. coli Rosetta (DE3)
T3 sequence (Q9LUT0 50-353): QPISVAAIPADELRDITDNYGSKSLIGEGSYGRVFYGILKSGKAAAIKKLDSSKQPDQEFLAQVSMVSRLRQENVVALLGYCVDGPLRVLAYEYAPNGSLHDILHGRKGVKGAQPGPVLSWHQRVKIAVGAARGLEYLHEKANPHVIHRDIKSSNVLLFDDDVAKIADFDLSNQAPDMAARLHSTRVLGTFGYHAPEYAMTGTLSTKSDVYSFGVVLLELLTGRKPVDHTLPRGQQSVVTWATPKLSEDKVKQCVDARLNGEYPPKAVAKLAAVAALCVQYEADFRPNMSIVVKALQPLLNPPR

ABI1 (Clade A PP2C) [2] = molecular target: B7; test: SPR
ABI1 (Clade A PP2C) [3] = molecular target: T4, ABI1 (Clade A PP2C) (Arabidopsis, UniProt P49597 1-434); test: SPR; in vitro; who was immobilised and the conditions are not told in the main text (Supplementary Fig. S7A-E); conditions: both partners purified
T4 construct: Protein phosphatase 2C ABI1, Arabidopsis; source: purified with the similar procedures as described for CARK1-KD
T4 sequence (looked up): B7 chain

[4] = molecular target: T5, His-tagged CARK1-KD (kinase domain of CARK1, residues 50-353) (Arabidopsis, UniProt Q9LUT0 50-353); test: pull-down; GST pull-down; His-tagged CARK1-KD or CARK1-KD^N204A (50, 100 and 200 μg) incubated with 100 μg of GST-tagged RCAR3 or RCAR11; SDS-PAGE and immunoblot; conditions: both partners purified
T5 construct: CARK1 (At3g17410), Arabidopsis, kinase domain, residues 50-353; Cloned into pET28a for the pull-down; details of the purification are in the Supplementary Information; source: E. coli Rosetta (DE3), purified
T5 sequence (looked up): T3 sequence (Q9LUT0 50-353)

[5] = molecular target: T6, RCAR3^T77D (phosphor-mimic form of RCAR3) (Arabidopsis, UniProt Q9FGM1 1-188, T77D); test: SPR
T6 sequence: B1 chain with T77D

[6] = molecular target: T7, RCAR3^S85R (interface point mutant) (Arabidopsis, UniProt Q9FGM1 1-188, S85R); test: SPR
T7 sequence: B1 chain with S85R

RCAR3^T77A = molecular target: T8, RCAR3^T77A (Arabidopsis, UniProt Q9FGM1 1-188, T77A); test: SPR
T8 sequence: B1 chain with T77A

How did the “in vitro Ser/Thr phosphatase assay of ABI1” value (RCAR11 (PYR1) with ABI1) turn out when `CC1=CC(=O)CC(C)(C)[C@@]1(O)/C=C/C(C)=C\C(=O)O` [ABA] was run?
Its value is “phosphatase activity of ABI1 was totally abolished by either forms of RCAR3/RCAR11”.

And the “in vitro Ser/Thr phosphatase assay of ABI1” value (RCAR3 (PYL8) with ABI1)?
Its value is “phosphatase activity of ABI1 was totally abolished by either forms of RCAR3/RCAR11”.

With “RCAR11^T78D (phosphor-mimic form of RCAR11) (from UniProt O49686 1-191) (receptor)” as the molecule, how does the phosphatase activity of ABI1 in vitro, without ABA: inhibitory effect [1] read?
Its phosphatase activity of ABI1 in vitro, without ABA: inhibitory effect is 28%.

For `Nc1ncnc2c1ncn2[C@@H]1O[C@H](COP(=O)(O)OP(=O)(O)OP(=O)(O)O)[C@@H](O)[C@H]1O` [ATP], which “in vitro kinase assay, 32P autoradiography” value (CARK1-KD) is on record?
The value was “wild-type CARK1-KD showed strong autophosphorylation activity”.

For B1, which koff (ABI1 (Clade A PP2C) [2]) is on record?
Its koff is 0.000822 s⁻¹.

And the Kd (ABI1 (Clade A PP2C) [3])?
The Kd was 0.88 µM.

Does B2 bind [4]?
Result: binds

With B3 as the molecule, how does the Kd (ABI1 (Clade A PP2C) [3]) read?
The Kd was 11.3 µM.

B4 was tested. Which Kd (ABI1 (Clade A PP2C) [3]) did it give?
Its Kd is roughly 0.2 µM.

Does B5 bind [4]?
Result: binds

B6 was tested. Which Kd (ABI1 (Clade A PP2C) [3]) did it give?
Its Kd is roughly 6.4 µM.

B7 was tested. Which koff [5] did it give?
Its koff is 0.000867 s⁻¹.

What about the koff [6] of the same molecule?
The koff was 0.00676 s⁻¹.

And the koff (RCAR3^T77A)?
Its koff is 0.0046 s⁻¹.
